This note sets out measurements from US9127075B2, “Analgesic active peptide VGG, preparation and use thereof” (priority 2010, dated 2015).

Read-outs that look alike come from different tables or passages of the source. Bounds are passed on as bounds.

Experiment [1] has as its system mouse twisting model induced by acetic acid. The class given is in vivo. Here is the method: 1. In Vivo Analgesic Activity in Mouse Twisting Model Induced by Acetic Acid.
In mouse twisting model: The glacial acetic acid as the chemical irritant is injected into the mouse stomach, which causes a deep and large area and lasting pain stimulus for animal which has a “twist body” reaction, such as abdominal cove, torso and legs spread out, hip high up.
Equal numbers of male and female mice, whose weight were about […], were divided into groups by random. Each group consisted of eight mice. 0.2 ml/20 g of 0.6% (v/v) of acetic acid, which caused visceral pain, was intraperitoneally injected after the test sample was injected into the stomach of mouse for 20 minutes. The writhing times of the mouse were recorded for 10 min after the acetic acid was injected for 5 min. […] The inhibition of writhing response inhibition for each test group was calculated by the following formula: […]

For experiment [2], the system named is mouse hot plate analgesic method. Nature of the experiment: In vivo assay of analgesic activity, hot plate method of mice. The note with it: 0.1 mg/kg i.v. via tail, hot plate 55±0.5° C.; for B, average response time after medicine taken: before 21 ± 4.2 s. How it is done:
2. In Vivo Assay of Analgesic Activity—Hot Plate Method of Mice
This example is used to verify the in vivo biological activity for the analgesic activity of analgesic active peptide VGG with […].
The mouse hot plate analgesic method: the female mice with weight from 18 g to 22 g were put a hot plate at temperature of 55±0.5° C. which was maintained by a water bath. The licking times were recorded plate as the pain threshold of mouse after it was put onto the hot plate. The pain threshold between 10-30 seconds was considered to be qualified for experiments. The qualified mice were divided into groups by random. The normal pain reaction time of mouse was determined for two times. The mean of the pain threshold (B) was calculated before medicine was taken. The analgesic active peptide VGG (dosage of 0.1 mg/kg (test sample/mouse weight) was intravenously injected via tail. The normal saline was used as control group. The pain reaction time was recorded as one at 15, 30, 45, 60 […] after the test sample was taken. The mouse was immediately taken out if it had no pain response on the hot plate in 60 seconds. The 60 seconds as a calculation unit, the pain threshold increasing percentage was calculated by the following formula: A=(B−C)/C×100% • A—Pain threshold increasing percentage • B—Average response time after medicine taken • C—Average response time before medicine taken
A general note: Thermal pain tests record how soon the animal reacts.

B1: analgesic active peptide VGG (protein, listed as Mesobuthus martensi)
chain: VKDGYIADDRNCPYFCGRNAYCDGECKKNRAESGYCQWASKYGNACWCYKLPDDARIMKPGRCNGG
B1: the “inhibition of the animal writhing” value is at least 60% in experiment [1] (purest analgesic active peptide VGG, dosage 0.1 mg/kg) and at least 50% in experiment [1] (various purity, isolated from scorpion venom or scorpion tails or scorpion body, dosage 0.1 mg/kg-1.0 mg/kg). Further, the “A, pain threshold increasing percentage” value in experiment [2] (10 min) is listed as 128%; in experiment [2] (15 min), 138%; in experiment [2] (30 min), 114%; in experiment [2] (45 min), 100%; in experiment [2] (60 min), 90%. Also, the “B, average response time after medicine taken” value in experiment [2] (10 min) worked out at 48 ± 3.2 s; in experiment [2] (15 min), 50 ± 5.1 s; in experiment [2] (30 min) it was 45 ± 3.7 s; in experiment [2] (45 min), 42 ± 6.9 s; in experiment [2] (60 min), 40 ± 3.5 s.
